Assay results from PMC12764052.

Biological target: Pyruvate kinase M2 isoform (human (endogenous in AGS and HGC27)) (UniProt P14618)
Test: cross-linking

Pyruvate kinase M2 isoform, P14618 1-531 (natural protein; other documents disagree on this pair), sequence (P14618 whole entry, canonical isoform): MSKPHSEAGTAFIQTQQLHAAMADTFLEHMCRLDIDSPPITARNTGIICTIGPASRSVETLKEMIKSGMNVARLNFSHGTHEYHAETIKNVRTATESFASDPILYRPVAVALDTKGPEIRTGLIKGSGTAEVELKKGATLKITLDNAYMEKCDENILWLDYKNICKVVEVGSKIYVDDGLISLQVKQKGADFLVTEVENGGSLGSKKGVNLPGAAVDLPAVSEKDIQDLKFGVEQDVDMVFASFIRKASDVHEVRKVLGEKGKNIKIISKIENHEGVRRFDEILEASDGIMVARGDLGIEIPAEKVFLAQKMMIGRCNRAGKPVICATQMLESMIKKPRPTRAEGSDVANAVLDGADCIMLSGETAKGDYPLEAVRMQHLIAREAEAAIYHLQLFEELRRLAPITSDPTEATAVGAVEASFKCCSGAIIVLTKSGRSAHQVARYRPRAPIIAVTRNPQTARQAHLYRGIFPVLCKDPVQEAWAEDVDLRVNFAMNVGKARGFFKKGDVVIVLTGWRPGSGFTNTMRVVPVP

- stoichiometry N: 2
Substance: Pyruvate kinase M2 isoform, P14618 1-531 (natural protein; other documents disagree on this pair)
